Results: patent US20230242598A1, “FUNCTIONAL POLYPEPTIDES AND USE THEREOF” (priority 2020, published 2023)
Read-outs that look alike come from different tables or passages of the source.

Assays:
HeLa = conditions: cited from earlier work
L1210 = conditions: Kobayashi et al. 1994; cited from earlier work
mice = conditions: i.p.; cited from earlier work
smooth muscle cell = conditions: Frew et al. 2008; cited from earlier work
HeLa cells = experiment: Cytotoxicity of SOR, Cell Counting Kit-8 (WST-8); format: cell-based, human; conditions: ratio of cytotoxicity, HeLa versus L1210
Description: The cytotoxicity of SOR was evaluated using L1210 (RBRC-RCB2844, Riken) and HeLa (RBRC-RCB0007, Riken) cells. RPMI1640 medium supplemented with 10% FBS was used for the L1210 cells, and EMEM supplemented with 10% FBS was used for the HeLa cells. The cells were precultured for 3 days (L1210) or 7 days (HeLa) using a CO2 incubator (37° C., 5% CO2). […]. SOR dissolved in a medium (200 μg/mL) was filtered ([…]), and serially diluted 2-fold, and the diluted products were added to wells in an amount of 10 μL/well such that the final concentration of SOR was 50 to 0.024 μg/mL. The cells of each line were incubated for 48 hours, and the growth of the cells was quantified using Cell Counting Kit-8 (Dojindo Laboratories Co., Ltd.) based on the WST-8 method according to manufacturer's protocol. Absorption at 450 nm was measured using a microplate reader, and a mean of triplicate data was plotted to prepare a concentration-response curve, followed by analysis using Prism software. […].

mice (ddY, male) = format: in vivo; conditions: i.c.v.
Description: Toxicity in mice was assessed by intracerebroventricularly injecting varying concentrations of SOR to mice (ddY, male, 3 to 4 weeks old, Japan SLC, Inc.) (Sakai et al., J Pharmacol Exp Ther. 2001; 296(2):650-8). […] […].

Aplysia kurodai eggs = experiment: Toxicity in Aplysia kurodai egg (influence on cleavage and development); format: in vivo
Description: Eggs were taken out of a newly deposited egg mass of Aplysia kurodai, and influence on cleavage was examined using the collected eggs. Eggs were taken out of the egg mass in artificial seawater (ASW) and gently centrifuged by hand centrifuge apparatus. The precipitated eggs were rinsed with ASW twice. Filtered natural seawater was added to a 24-well plate (2 mL/well), to which SOR (10 μL/well) and subsequently the liquid containing the eggs (20 μL/well) were added. Then, egg development was observed under microscope every few hours. […] Untreated control eggs underwent the second cleavage 6 hours after fertilization and developed into morula in 24 hours; […].

Plasmid DNA (pTAC-1) = experiment: Cleavage of DNA by natural SOR, agarose electrophoresis; format: biochemical; conditions: SOR 8.8 μg/mL, with or without EDTA 12.5 mM, room temperature, 24 hours
Description: Plasmid DNA (pTAC-1, 4 ng, BioDynamics Laboratory, Inc.), or the plasmid DNA and EDTA (12.5 mM) were added to and mixed with a hydrophobic interaction chromatography fraction containing SOR (8.8 μg/mL) or a Tris-HCl buffer (pH 8.3) containing 0.1 M NaCl. The mixture was left at room temperature for 24 hours, separated by agarose electrophoresis, stained with ethidium bromide (15 min), and subsequently observed under UV light (260 nm). Thermo scientific GeneRuler 1 kb DNA Ladder (Thermo Fisher Scientific Inc.) was used as a marker.

[1] = Isoelectric point by two-dimensional polyacrylamide gel electrophoresis (2-DE); format: physicochemical; conditions: IPG Strip 3-6
Description: Next, the isoelectric point of SOR was determined by two-dimensional polyacrylamide gel electrophoresis (2-DE). First, 443 μg of a sample was mixed with a rehydration solution (8 M urea, 0.5% 3-[(3-cholamidopropyl)dimethylammonio]-prop anesulfonic acid (CHAPS), 0.5% Bio-Lyte 3/10 (Bio-Rad Laboratories, Inc.), 0.2% dithiothreitol, 0.002% bromophenol blue). The obtained solution was applied to IPG Strip 3-6 (Bio-Rad Laboratories, Inc.). Isoelectric focusing electrophoresis was performed at 20° C. as follows: rehydration for 12 hours, 300 V for 30 minutes, 1000 V for 30 minutes, and 5000 V for 2 hours. After electrophoresis, the strip was equilibrated for 15 minutes with shaking in 2% SDS, 50 mM Tris-HCl, pH 8.8, 6 M urea, 30% glycerol, and 0.25% DTT. Subsequently, the strip was re-equilibrated for 15 minutes with shaking in 2% SDS, 50 mM Tris-HCl, pH 8.8, 6 M urea, 30% glycerol, and 4.5% iodoacetamide. The strip was put on a 12% polyacrylamide gel, and the second electrophoresis was performed in the same manner as in SDS-PAGE. The gel was stained with a silver staining kit (Wako Pure Chemical Industries, Ltd.).

[2] = test system: HeLa cells (derived from human uterine cervix cancer); experiment: Intracellular translocation into HeLa cell, confocal laser microscope; format: cell-based; conditions: overall conclusion
Description: Whether SOR could translocate into cells and further into the nuclei was studied using fluorescently labeled SOR. […] Also, BSA labeled with FITC in the same manner as above was used as a control.
The same experiment as in the section (1) was also conducted for HeLa cells (derived from human uterine cervix cancer). A HeLa suspension prepared at approximately 2.2×10^4 cells/mL was added at 270 μL/well to 8-well chamber cover glass (Eppendorf) to make approximately 6.0×10^3 cells/well, followed by preculture at 37° C. for 24 hours in a 5% CO2 incubator. […] The cells thus supplemented with the sample was subjected to fixing and permeabilization treatment over each time period from 30 minutes to 16 hours, and stained with DAPI. Then, a mount was prepared.

For `C=C1[C@@H](C)[C@H]2[C@H](Cc3ccccc3)NC(=O)[C@]23[C@H](OC(C)=O)/C=C/[C@@](C)(O)C(=O)[C@@H](C)C/C=C/[C@H]3[C@@H]1O` [Cytochalasin D], the IC50 (HeLa; Miranda et al. 1974) is listed as 100 nM.

For `CO[C@H]1C[C@H](CC[C@H](C)[C@H](O)[C@H](C)[C@H]2OC(=O)/C=C/C(C)=C/C[C@H](O)C[C@@H]3C=CC[C@@H](C[C@H](OC)[C@@H](C)[C@@H](O)C[C@@H](O)[C@H](C)[C@@H]([C@@H](C)[C@@H](O)[C@@H](C)CC[C@H]4C[C@H](OC)C[C@H](C)O4)OC(=O)/C=C/C(C)=C/C[C@H](O)C[C@@H]4C=CC[C@@H](C[C@H](OC)[C@@H](C)[C@@H](O)C[C@@H](O)[C@@H]2C)O4)O3)O[C@@H](C)C1` [Swinholide A], the IC50 (L1210) is given as 22 nM.

For `C=CC[C@H](C)[C@H](C)C[C@@H](O)[C@H](O)[C@@H]1CC[C@@]2(C)O[C@@]3(C)C[C@@]4(C)O[C@H]5/C=C\C[C@H]6O[C@H]7C[C@H]8O[C@H]9C[C@@]%10(C)O[C@@](C)([C@@H]%11CC[C@H]%12O[C@@]%13(C)C[C@H]%14O[C@@]%15(C)C[C@H]%16O[C@@]%17(C)C[C@@H](O)[C@H]([C@@H]%18O[C@H]%19[C@H](O)[C@@H](O)[C@H](C[C@H](O)C[C@@H](O)[C@@H]%20O[C@H]%21[C@H](O)[C@@H](O)[C@H]([C@@H]%22O[C@@H]%23[C@H](O)[C@H]%24O[C@H]%25C[C@H]%26O[C@@H](C[C@H](O)[C@@H](O)[C@H]%27O[C@H]%28[C@H](O)[C@H]%29O[C@H]%30C[C@H]%31O[C@H]%32[C@@H](O)[C@@H](O)[C@H]([C@H](C)[C@H](O)[C@H](C)CC[C@H](OS(=O)(=O)[O-])[C@H](O)[C@H](C)C[C@@H](O)C(=C)/C(C)=C/CO)O[C@@H]%32[C@H](O)C[C@]%31(C)O[C@@H]%30C[C@]%29(C)O[C@@H]%28C[C@H]%27O)[C@H](OS(=O)(=O)[O-])[C@H](O)[C@@H]%26O[C@@H]%25C[C@@H]%24O[C@H]%23[C@H](O)[C@H]%22O)O[C@H]%21C[C@H]%20O)O[C@H]%19C[C@H]%18O)O[C@@H]%17[C@H](O)[C@]%16(C)O[C@@H]%15CC[C@]%14(C)O[C@@H]%13C[C@@H]%12O%11)[C@H](O)C[C@@H]%10O[C@]9(C)CC[C@]8(C)O[C@]7(C)C[C@@H]6O[C@@H]5C[C@@H]4O[C@@H]3C[C@@H]2O1.[Na+].[Na+]` [Maito toxin], the Lethal dose (mice) is given as 37.9 pmol/kg and the IC50 (smooth muscle cell) is given as about 0.058 nM.

In the case of `CC(=O)O[C@H]1C(=O)[C@@]2(C)[C@H]([C@H](OC(=O)c3ccccc3)[C@]3(O)C[C@H](OC(=O)[C@H](O)[C@@H](NC(=O)c4ccccc4)c4ccccc4)C(C)=C1C3(C)C)[C@]1(OC(C)=O)CO[C@@H]1C[C@@H]2O` [Paclitaxel], the IC50 (HeLa; Liebmann et al. 1993) is given as 2.6 nM.

B1: soritesidine (protein)
chain: HFSLKRQDSSITHQTVSIFCITILLLSVSAYFPNSIPEAQAKLGDQRQIDIASWNTFDFGGKFGGVCKANDPTILQAMTDVISQHDVILVQEIANVTNPCNPANIFSGFNNLCSNNYLGGLGYLCQDTGIVGSGEGYGIIYKNNTGIGNVVIERTDNPNTVPYIPAGGGNNQMKRPPMKATLDFNAGAFNVVVYNAHTSPSGGVPKEIKLLSDRISPAHNPLDKNAVITLGDLNADGKRRLPNGQLDHGTDYYRGGFAAHPNDFPVSGWQQTVTDTDVTNFAQTLRAYDRMILSNATHNSYDEYGIIGGIPNPLPYPGGVYPAGTLFKNVHTGGGNTGKALSDHRLIWSKLNYGAIETTDNNGNTKSNFVEFTNPPQCTAPDTVYAKGADFVPNRTVDIYITKQPDNQNFIPLPQPQNPTNPGQFKQVGESYQLTDVRTTGKSTHNIDANGNIANTAVWVQPTPNQQYNLIVDVDRDGYFTNSIDIVDAFNTQGFDVDPCLRKRLAASLSDGIPAGDGTRDFVKPPKIFISGDWFPQGSARIYIIIYDKNFDYNGNDSKVLTDVRGTYDTITVGENHKFTGLEWSSPHVGNYNIIFDANSDGVYKKSDGDIVDHINEIGFAMLESYPHHSHIVDLDDNANQREDFNSGIAKNVYVLATNLPNPSTIVDVYVISEKLLKLNNPGWTTWQQSSNVPLKESAAPTNNGDRLHPTWVTPQKTVFGSVWHMPGDTFDPPYINYYGKKFTIVIDVNRDGKYDPSIDMVDTHDIGDMTDWFITQGHHDLSPTSGNGQPAVSEYKEYLNSKLDLENPLDNTNNYDAATEAASAQYLCRTNLPINLFENVIELGAQTGFIMFNPDEYYAGRDLNSGRHIYDAVDFDGLEINDGYTSVISAKEMTLNRLGVGQNSNLLTCGADTVTIDGMSTQKDSTTNIVAKTISHKSNISLEADTCTHYTHNLYFESDTNILVKAIESPFAWIIDVGDRILPGTGC
With B1 the “selectivity for the HeLa cells over the L1210 cells” value (HeLa cells) was “approximately 200 times”, the Lethal dose (mice (ddY, male)) was 1.60 pmol/kg and the acute toxicity (mice (ddY, male)) was “no acute toxicity was observed”. For the same molecule, the “dosage causing lethal toxicity” value (mice (ddY, male)) was 5.74 ng/mouse, the time to death (mice (ddY, male); 574 ng of SOR) was 18 h and the “time to loss of normal posture” value (mice (ddY, male); 574 ng of SOR) was 17 h. The “time to loss of voluntary movement” value (mice (ddY, male); 574 ng of SOR) was 14 h, the “eye observation after administration” value (mice (ddY, male); 14 hours or later after administration) was “Reddish ring around eyes was observed” and the “influence on egg cleavage and development” value (Aplysia kurodai eggs; SOR 1.3 ng/mL) was “overall shape of the cells was shrunken and bubble-like protrusions on the cell surface were often observed, though development progressed”. For the same molecule, the “influence on egg cleavage and development” value (Aplysia kurodai eggs; SOR 1.3 μg/mL, 24 hours) was “only two blastomeres were observed even 24 hours later”, the “influence on the morphology of the eggs” value (Aplysia kurodai eggs; varying SOR concentrations) was “concentration-dependent influence on the morphology of the eggs” and the “cleavage of DNA” value (Plasmid DNA (pTAC-1)) was “cleaved DNA in a metal ion-dependent manner”. The “isoelectric point (pI)” value [1] was “approximately 4.5” and the intracellular translocation [2] was “intracellular translocation of SOR was confirmed”.
